Target: denatured enolase

B1: N-terminal hexahistidine tagged SAD (protein)
chain: MRGSHHHHHHEPFLRRRLAFLSFFWDKIWPAGGEPDHGTPGSLDPNTDPVPTLPAEPCSPFPQLFLALYDFTARCGGELSVRRGDRLCALEEGGGYIFARRLSGQPSAGLVPITHVAKASPETLSDQPWYFSGVSRTQAQQLLLSPPNEPGAFLIRPSESSLGGYSLSVRAQAKVCHYRVSMAADGSLYLQKGRLFPGLEELLTYYKANWKLIQNPLLQPCMPQKAPRQDVWERPHSEFALGRKLGEGYFGEVWEGLWLGSLPVAIKVIKSANMKLTDLAKEIQTLKGLRHERLIRLHAVCSGGEPVYIVTELMRKGNLQAFLGTPEGRALRLPPLLGFACQVAEGMSYLEEQRVVHRDLAARNVLVDDGLACKVADFGLARLLKDDIYSPSSSSKIPVKWTAPEAANYRVFSQKSDVWSFGVLLHEVFTYGQCPYEGMTNHETLQQIMRGYRLPRPAACPAEVYVLMLECWRSSPEERPSFATLREKLHAIHRCHP
Question: Which “phosphorylation of substrate, in vitro kinase assay with 32P-ATP, autoradiography” value does the source give for B1 here?
Answer: SAD was able to phosphorylate both denatured enolase and poly-Glu-Tyr in vitro
